According to US12630600B2 (MEDIMMUNE LIMITED, priority 2022, dated 2026):
Starred links: 1 amine or outer side, 2 acyl side, 3 side chain; linkers in the order of their positions; H or OH if unused. Non-standard residues stand in square brackets, D forms with d. Groups on a side chain read outwards from the residue. No end group written: not given here. *: point of attachment. C18 diacid = O=C(O)CCCCCCCCCCCCCCCCC(=O)*; γGlu = O=C(O)[C@H](CCC(=O)[*:2])N[*:1]; αMeF = C[C@](N)(Cc1ccccc1)C(=O)O; AEEA = NCCOCCOCC(=O)O; Aib = CC(C)(N)C(=O)O

Experiments:
[1] = target: human GLP-1 receptor (human, UniProt P43220); assay: cell-based or functional assay
[2] = target: human glucagon receptor (human, UniProt P47871); assay: cell-based or functional assay

cAMP production EC50 [1] [nM] | cAMP production EC50 [2] [nM] | Binder
0.213 | 0.548 | H[Aib]QGTFTSDVSK[αMeF]LDSK([AEEA-AEEA-γGlu-C18 diacid])RAQDFVQWLE[Aib]T-OH (N-terminus assumed; SMILES CC(C)C[C@H](NC(=O)[C@H](Cc1c[nH]c2ccccc12)NC(=O)[C@H](CCC(N)=O)NC(=O)[C@@H](NC(=O)[C@H](Cc1ccccc1)NC(=O)[C@H](CC(=O)O)NC(=O)[C@H](CCC(N)=O)NC(=O)[C@H](C)NC(=O)[C@H](CCCNC(=N)N)NC(=O)[C@H](CCCCNC(=O)COCCOCCNC(=O)COCCOCCNC(=O)CC[C@H](NC(=O)CCCCCCCCCCCCCCCCC(=O)O)C(=O)O)NC(=O)[C@H](CO)NC(=O)[C@H](CC(=O)O)NC(=O)[C@H](CC(C)C)NC(=O)[C@](C)(Cc1ccccc1)NC(=O)[C@H](CCCCN)NC(=O)[C@H](CO)NC(=O)[C@@H](NC(=O)[C@H](CC(=O)O)NC(=O)[C@H](CO)NC(=O)[C@@H](NC(=O)[C@H](Cc1ccccc1)NC(=O)[C@@H](NC(=O)CNC(=O)[C@H](CCC(N)=O)NC(=O)C(C)(C)NC(=O)[C@@H](N)Cc1c[nH]cn1)[C@@H](C)O)[C@@H](C)O)C(C)C)C(C)C)C(=O)N[C@@H](CCC(=O)O)C(=O)NC(C)(C)C(=O)N[C@H](C(=O)O)[C@@H](C)O) [Peptide 33]
0.543 | 1.62 | H[Aib]QGTFTSDVSK[αMeF]LDTKRARDFVQWLLE[Aib]G-OH (not fully specified (residue 17)) [Peptide 520]
0.0431 | 0.278 | H[Aib]QGTFTSDVSK[αMeF]LDSK([AEEA-AEEA-γGlu-C18 diacid])RARDFVQWLL[Aib]T-OH (N-terminus assumed; SMILES CC(C)C[C@H](NC(=O)[C@H](Cc1c[nH]c2ccccc12)NC(=O)[C@H](CCC(N)=O)NC(=O)[C@@H](NC(=O)[C@H](Cc1ccccc1)NC(=O)[C@H](CC(=O)O)NC(=O)[C@H](CCCNC(=N)N)NC(=O)[C@H](C)NC(=O)[C@H](CCCNC(=N)N)NC(=O)[C@H](CCCCNC(=O)COCCOCCNC(=O)COCCOCCNC(=O)CC[C@H](NC(=O)CCCCCCCCCCCCCCCCC(=O)O)C(=O)O)NC(=O)[C@H](CO)NC(=O)[C@H](CC(=O)O)NC(=O)[C@H](CC(C)C)NC(=O)[C@](C)(Cc1ccccc1)NC(=O)[C@H](CCCCN)NC(=O)[C@H](CO)NC(=O)[C@@H](NC(=O)[C@H](CC(=O)O)NC(=O)[C@H](CO)NC(=O)[C@@H](NC(=O)[C@H](Cc1ccccc1)NC(=O)[C@@H](NC(=O)CNC(=O)[C@H](CCC(N)=O)NC(=O)C(C)(C)NC(=O)[C@@H](N)Cc1c[nH]cn1)[C@@H](C)O)[C@@H](C)O)C(C)C)C(C)C)C(=O)N[C@@H](CC(C)C)C(=O)NC(C)(C)C(=O)N[C@H](C(=O)O)[C@@H](C)O) [Peptide 36]
0.0824 | 0.161 | H[Aib]QGTFTSDVSK[αMeF]LDSK([AEEA-AEEA-γGlu-C18 diacid])RAQDFVQWLL[Aib]E-OH (N-terminus assumed; SMILES CC(C)C[C@H](NC(=O)[C@H](Cc1c[nH]c2ccccc12)NC(=O)[C@H](CCC(N)=O)NC(=O)[C@@H](NC(=O)[C@H](Cc1ccccc1)NC(=O)[C@H](CC(=O)O)NC(=O)[C@H](CCC(N)=O)NC(=O)[C@H](C)NC(=O)[C@H](CCCNC(=N)N)NC(=O)[C@H](CCCCNC(=O)COCCOCCNC(=O)COCCOCCNC(=O)CC[C@H](NC(=O)CCCCCCCCCCCCCCCCC(=O)O)C(=O)O)NC(=O)[C@H](CO)NC(=O)[C@H](CC(=O)O)NC(=O)[C@H](CC(C)C)NC(=O)[C@](C)(Cc1ccccc1)NC(=O)[C@H](CCCCN)NC(=O)[C@H](CO)NC(=O)[C@@H](NC(=O)[C@H](CC(=O)O)NC(=O)[C@H](CO)NC(=O)[C@@H](NC(=O)[C@H](Cc1ccccc1)NC(=O)[C@@H](NC(=O)CNC(=O)[C@H](CCC(N)=O)NC(=O)C(C)(C)NC(=O)[C@@H](N)Cc1c[nH]cn1)[C@@H](C)O)[C@@H](C)O)C(C)C)C(C)C)C(=O)N[C@@H](CC(C)C)C(=O)NC(C)(C)C(=O)N[C@@H](CCC(=O)O)C(=O)O) [Peptide 34]
0.0756 | 0.441 | H[Aib]QGTFTSDVSK[αMeF]LDSK([AEEA-AEEA-γGlu-C18 diacid])RAQDFVEWLL[Aib]T-OH (N-terminus assumed; SMILES CC(C)C[C@H](NC(=O)[C@H](Cc1c[nH]c2ccccc12)NC(=O)[C@H](CCC(=O)O)NC(=O)[C@@H](NC(=O)[C@H](Cc1ccccc1)NC(=O)[C@H](CC(=O)O)NC(=O)[C@H](CCC(N)=O)NC(=O)[C@H](C)NC(=O)[C@H](CCCNC(=N)N)NC(=O)[C@H](CCCCNC(=O)COCCOCCNC(=O)COCCOCCNC(=O)CC[C@H](NC(=O)CCCCCCCCCCCCCCCCC(=O)O)C(=O)O)NC(=O)[C@H](CO)NC(=O)[C@H](CC(=O)O)NC(=O)[C@H](CC(C)C)NC(=O)[C@](C)(Cc1ccccc1)NC(=O)[C@H](CCCCN)NC(=O)[C@H](CO)NC(=O)[C@@H](NC(=O)[C@H](CC(=O)O)NC(=O)[C@H](CO)NC(=O)[C@@H](NC(=O)[C@H](Cc1ccccc1)NC(=O)[C@@H](NC(=O)CNC(=O)[C@H](CCC(N)=O)NC(=O)C(C)(C)NC(=O)[C@@H](N)Cc1c[nH]cn1)[C@@H](C)O)[C@@H](C)O)C(C)C)C(C)C)C(=O)N[C@@H](CC(C)C)C(=O)NC(C)(C)C(=O)N[C@H](C(=O)O)[C@@H](C)O) [Peptide 38]
0.031 | 0.0773 | H[Aib]QGTFTSDVSK[αMeF]LDTK([AEEA-AEEA-γGlu-γGlu-C18 diacid])RARDFVQWLLE[Aib]G-OH (N-terminus assumed; SMILES CC(C)C[C@H](NC(=O)[C@H](Cc1c[nH]c2ccccc12)NC(=O)[C@H](CCC(N)=O)NC(=O)[C@@H](NC(=O)[C@H](Cc1ccccc1)NC(=O)[C@H](CC(=O)O)NC(=O)[C@H](CCCNC(=N)N)NC(=O)[C@H](C)NC(=O)[C@H](CCCNC(=N)N)NC(=O)[C@H](CCCCNC(=O)COCCOCCNC(=O)COCCOCCNC(=O)CC[C@H](NC(=O)CC[C@H](NC(=O)CCCCCCCCCCCCCCCCC(=O)O)C(=O)O)C(=O)O)NC(=O)[C@@H](NC(=O)[C@H](CC(=O)O)NC(=O)[C@H](CC(C)C)NC(=O)[C@](C)(Cc1ccccc1)NC(=O)[C@H](CCCCN)NC(=O)[C@H](CO)NC(=O)[C@@H](NC(=O)[C@H](CC(=O)O)NC(=O)[C@H](CO)NC(=O)[C@@H](NC(=O)[C@H](Cc1ccccc1)NC(=O)[C@@H](NC(=O)CNC(=O)[C@H](CCC(N)=O)NC(=O)C(C)(C)NC(=O)[C@@H](N)Cc1c[nH]cn1)[C@@H](C)O)[C@@H](C)O)C(C)C)[C@@H](C)O)C(C)C)C(=O)N[C@@H](CC(C)C)C(=O)N[C@@H](CCC(=O)O)C(=O)NC(C)(C)C(=O)NCC(=O)O) [Peptide 518]
0.0686 | 2.75 | H[Aib]QGTFTSDVSK[αMeF]LDSK([AEEA-AEEA-γGlu-C18 diacid])RAEDFVQWLL[Aib]T-OH (N-terminus assumed; SMILES CC(C)C[C@H](NC(=O)[C@H](Cc1c[nH]c2ccccc12)NC(=O)[C@H](CCC(N)=O)NC(=O)[C@@H](NC(=O)[C@H](Cc1ccccc1)NC(=O)[C@H](CC(=O)O)NC(=O)[C@H](CCC(=O)O)NC(=O)[C@H](C)NC(=O)[C@H](CCCNC(=N)N)NC(=O)[C@H](CCCCNC(=O)COCCOCCNC(=O)COCCOCCNC(=O)CC[C@H](NC(=O)CCCCCCCCCCCCCCCCC(=O)O)C(=O)O)NC(=O)[C@H](CO)NC(=O)[C@H](CC(=O)O)NC(=O)[C@H](CC(C)C)NC(=O)[C@](C)(Cc1ccccc1)NC(=O)[C@H](CCCCN)NC(=O)[C@H](CO)NC(=O)[C@@H](NC(=O)[C@H](CC(=O)O)NC(=O)[C@H](CO)NC(=O)[C@@H](NC(=O)[C@H](Cc1ccccc1)NC(=O)[C@@H](NC(=O)CNC(=O)[C@H](CCC(N)=O)NC(=O)C(C)(C)NC(=O)[C@@H](N)Cc1c[nH]cn1)[C@@H](C)O)[C@@H](C)O)C(C)C)C(C)C)C(=O)N[C@@H](CC(C)C)C(=O)NC(C)(C)C(=O)N[C@H](C(=O)O)[C@@H](C)O) [Peptide 37]
0.172 | 0.386 | H[Aib]QGTFTSDVSK[αMeF]LDTK([γGlu-γGlu-AEEA-AEEA-γGlu-γGlu-C18 diacid])RARDFVQWLLE[Aib]G-OH (N-terminus assumed; SMILES CC(C)C[C@H](NC(=O)[C@H](Cc1c[nH]c2ccccc12)NC(=O)[C@H](CCC(N)=O)NC(=O)[C@@H](NC(=O)[C@H](Cc1ccccc1)NC(=O)[C@H](CC(=O)O)NC(=O)[C@H](CCCNC(=N)N)NC(=O)[C@H](C)NC(=O)[C@H](CCCNC(=N)N)NC(=O)[C@H](CCCCNC(=O)CC[C@H](NC(=O)CC[C@H](NC(=O)COCCOCCNC(=O)COCCOCCNC(=O)CC[C@H](NC(=O)CC[C@H](NC(=O)CCCCCCCCCCCCCCCCC(=O)O)C(=O)O)C(=O)O)C(=O)O)C(=O)O)NC(=O)[C@@H](NC(=O)[C@H](CC(=O)O)NC(=O)[C@H](CC(C)C)NC(=O)[C@](C)(Cc1ccccc1)NC(=O)[C@H](CCCCN)NC(=O)[C@H](CO)NC(=O)[C@@H](NC(=O)[C@H](CC(=O)O)NC(=O)[C@H](CO)NC(=O)[C@@H](NC(=O)[C@H](Cc1ccccc1)NC(=O)[C@@H](NC(=O)CNC(=O)[C@H](CCC(N)=O)NC(=O)C(C)(C)NC(=O)[C@@H](N)Cc1c[nH]cn1)[C@@H](C)O)[C@@H](C)O)C(C)C)[C@@H](C)O)C(C)C)C(=O)N[C@@H](CC(C)C)C(=O)N[C@@H](CCC(=O)O)C(=O)NC(C)(C)C(=O)NCC(=O)O) [Peptide 519]
